{
  "source": "patent US20210162028A1",
  "about": "“Methods for Inducing Intermittent Fasting and Modulating Autophagy” (The Hong Kong Polytechnic University, priority 2019, published 2021)",
  "key": {"[1]": {"test_system": "p62, LC3-II/LC3-I, p70S6K1, ULK1", "assay": "Western blotting of autophagy markers in brown adipose tissue", "assay_type": "in vivo, mouse", "conditions": "600 U once a week, 4 weeks", "text": "FIG. 49 illustrates the changes of relative p62 protein levels, detected by western blotting, at different days of a 7-day intermittent fasting cycle in the brown adipose tissue (BAT) of HFD-induced C57BL/6J DIO male mice administered with 600 U N-ABD094-rhArg (SEQ ID NO: 50) once a week for 4 weeks. The p62 protein is a receptor for cargo destined to be degraded by autophagy. The marked reduction in p62 levels from Day 1 to Day 3 indicated enhanced autophagy that coincided with the entry into the fasting phase. The increase in p62 levels from Day 5 to Day 7 implicated a decrease in autophagy, which coincided with the entry into the refeeding phase. *P<0.05, one-way ANOVA followed by Bonferroni test. Data are expressed as mean±SEM, n=4 for each group.\nRatio of LC3II/LC3-I was used as a marker of autophagy and semiquantified by western blotting. Chloroquine (an autophagy inhibitor, CQ) were injected 5 hr to accumulate autophagosomes in the BAT before tissue collection. *P<0.05, one-way ANOVA followed by Bonferroni test. Data are expressed as mean±SEM, n=4 for [HFD (vehicle)] and [HFD (rhArg)] group without CQ; n=3 for CQ-treated group.\nData are expressed as mean±SEM, n=4 each group.\nThe p62, also known as SQSTMl/sequestome 1, serves as a link between LC3B and ubiquitinated substrates and is efficiently degraded by autophagy. Thus, the level of p62 proteins can be used to monitor autophagic flux. For example, autophagic suppression correlates with an increased p62 level, and similarly, autophagic activation correlates with a decreased p62 level. […] Besides, the expression level of autophagy marker LC3B was detected in presence or absence of CQ (FIG. 50). The conversion of LC3B -I to the lower migrating form, LC3B-II, is used as an indicator of cellular autophagy level. The higher the LC3B-II/LC3B-I ratio indicates the higher incidence rate of autophagy in the tissue."}, "[2]": {"assay": "Whitening of brown adipose tissue (size, mass, H&E histology)", "assay_type": "in vivo, mouse", "conditions": "DIO C57BL/6J male mice on HFD; 600 U once a week, 12 weeks", "text": "FIG. 53 illustrates that administration of 600 U N-ABD094-rhArg (SEQ ID NO: 50) once a week to C57BL/6J male mice with pre-existing HFD-induced obesity [HFD (rhArg) group] for 12 weeks could effectively reverse whitening of brown adipose tissue (BAT), with lipids stored as a large single globule (characteristic feature of white adipocytes) changing to storage of lipids in multiple small droplets (characteristic feature of brown adipocytes), which was in line with the findings of induction of lipophagy observed by TEM. […] (B) The mass of iBAT of the 3 groups of mice was in line with the size shown in A. *P<0.05, one-way ANOVA followed by Bonferroni test. Data are expressed as mean±SEM, n=5 for each group.\nAfter prolonged feeding on a HFD, there was a further increase in the size (FIG. 53A) and weight of the interscapular BAT (FIG. 53B) in vehicle-treated DIO mice [HFD (vehicle) group] in comparison to the lean control mice [CD (vehicle) group], which was correlated with the presence of massive amount of enlarged white-like unilobular cells (FIG. 53A). As observed under transmission electron microscopy, brown adipocyte in mice fed with HFD [HFD (vehicle) group] had massive enlarged lipid droplets (FIG. 52A). […] Many autophagosomes were actively forming and engulfing the lipid droplets (FIG. 52B). […]"}, "[3]": {"assay": "Hepatic steatosis (oil Red O / H&E staining, liver triglyceride)", "assay_type": "in vivo, mouse", "conditions": "DIO C57BL/6J male mice on HFD; for Lipid in liver (H&E staining): 11 weeks after treatment"}, "[4]": {"assay": "Liver and kidney damage biomarkers (serum ALT/AST, urine albumin-to-creatinine)", "assay_type": "in vivo, mouse", "conditions": "DIO C57BL/6J male mice on HFD; about 600 U once a week, 34 weeks", "text": "Other than WAT and BAT, obesity is associated with excessive accumulation of lipids in the liver (hepatic steatosis). Indeed, the liver of vehicle-treated DIO mice was markedly enlarged (FIG. 7A), with a mass about 3 times (4.68 g) that of the lean control (1.73 g) (FIG. 7B).\nOther than liver, obesity is also commonly associated with lipid accumulation in the kidney (renal steatosis) and heart (cardiac steatosis), causing lipotoxicity and dysfunction of these organs. Indeed, there was an increase in kidney and heart mass in DIO mice treated with vehicle (FIG. 8A and FIG. 9A)."}, "[5]": {"assay": "Half-life / therapeutic duration in circulation", "parameters": "species or system mice", "conditions": "mouse, in vivo", "text": "As used herein, the term “half-life” or “½-life” refers to the time that would be required for the concentration of an agent, e.g., a fusion protein or arginine depleting agent as described herein, to fall by half in vitro or in vivo, for example, after injection into a mammal. In certain instances, the concentration of plasma arginine, after injection, is used herein as a proxy indicator of the half-life of the agent. In such instances, the term “therapeutic duration” is used to refer to the length of time a specified dosage of the arginine depleting agent is able to maintain the plasma concentration of arginine below a specified threshold concentration that a desired therapeutic effect is observed. In certain embodiments, the threshold concentration of plasma arginine is below 50 μM, below 40 μM, below 30 μM, below 20 μM, below 10 μM, below 5 μM, below 3 μM, or at a concentration below the detection limit of conventional analytical instrumentation.\nImportantly, the present invention used a new ABD fusion approach to join an ABD and an arginase together so that arginase activity can be retained. Stable and soluble arginase-ABD fusion molecules that can bind to FcRn in a pH-dependent manner were successfully generated, allowing for efficient endosomal recycling. […] Taken together, a variety of different approaches are available for fine-tuning the pharmacokinetic properties of arginases, ensuring appropriate residence time in circulation for different disease conditions. Another key issue in the development of any therapeutic protein is to minimize immunogenicity to avoid adverse effects. Thus, the observed low immunogenicity of human arginase and the successful deimmunization of ABD (e.g. ABD094), which was also used in the present disclosure as gene fusion partner to extend the in vivo half-life, are important."}, "[6]": {"assay": "Fat pad and organ mass at end of treatment", "assay_type": "in vivo, mouse"}, "[7]": {"conditions": "DIO male mice on HFD, Day 3 of cycle"}, "[8]": {"conditions": "DIO C57BL/6J male mice on HFD, 300 U rhArg once a week and/or 300 mg/kg metformin daily"}, "[9]": {"conditions": "DIO C57BL/6J male mice on HFD, 600 U once a week, 5 weeks (artificial IF experiment)"}},
  "data": [
    {"molecule": "N-ABD094-rhArg: recombinant human arginase fused to albumin binding domain ABD094 (SEQ ID NO: 50); engineered long-acting arginine-depleting enzyme (protein, N-ABD094-rhArg, Synthesized in the Lab, engineered long-acting arginine-depleting enzyme) MHHHHHHDEAVDANSLAEAKEAANAELDSYGVSDFYKRLIDKAKTVEGVEALKDAILAALPSGSNNNNNNGSGGMSAKSRTIGIIGAPFSKGQPRGGVEEGPTVLRKAGLLEKLKEQECDVKDYGDLPFADIPNDSPFQIVKNPRSVGKASEQLAGKVAEVKKNGRISLVLGGDHSLAIGSISGHARVHPDLGVIWVDAHTDINTPLTTTSGNLHGQPVSFLLKELKGKIPDVPGFSWVTPCISAKDIVYIGLRDVDPGEHYILKTLGIKYFSMTEVDRLGIGKVMEETLSYLLGRKKRPIHLSFDVDGLDPSFTPATGTPVVGGLTYREGLYITEEIYKTGLLSGLDIMEVNPSLGKTPEEVTRTVNTAVAITLACFGLAREGNHKPIDYLNPPK", "values": [
      {"measurement": "p62 protein level in BAT", "setting": "[1]; DIO C57BL/6J male mice on HFD, days of the 7-day cycle", "value": "significant decrease in p62 level at Day 3 and Day 5"},
      {"measurement": "LC3-II/LC3-I ratio in BAT upon chloroquine injection", "setting": "[1]; [7]", "value": "dramatic increase upon injection of CQ"},
      {"measurement": "ULK1 in BAT", "setting": "[1]; [7]", "value": "stimulation"},
      {"measurement": "p70S6K1 in BAT", "setting": "[1]; [7]", "value": "significant suppression"},
      {"measurement": "White-like unilobular cells in BAT (histology)", "setting": "[2]", "value": "almost complete remission of white-like unilobular cells"},
      {"measurement": "Lipid droplets in liver (oil Red O)", "setting": "[3]; 600 U once a week, 12 weeks", "value": "dramatic clearance of lipid droplets"},
      {"measurement": "Liver triglyceride concentrations", "setting": "[3]; 600 U once a week, 12 weeks", "value": "reduced to a level similar to the lean control"},
      {"measurement": "Lipid in liver (H&E staining)", "setting": "[3]; rhArg and/or RA", "value": "significant effect on diminishing lipid in liver"},
      {"measurement": "Lipid in liver (H&E staining)", "setting": "[3]; rhArg and/or metformin", "value": "slight effect of diminishing lipid in liver"},
      {"measurement": "Ratio of albumin-to-creatinine in urine", "setting": "[4]", "value": "levels similar to the age-matched lean control mice"},
      {"measurement": "Serum concentrations of ALT and AST", "setting": "[4]", "value": "restored to levels comparable to the lean control mice"},
      {"measurement": "Therapeutic duration (and half-life)", "setting": "[5]", "value": "much longer than BHA and BAH"},
      {"measurement": "Fat pad mass of perirenal and inguinal WAT, interscapular BAT and liver mass", "setting": "[6]; 17-month old C57BL/6J male mice on chow diet, once a week, 21 weeks", "value": "significant reduction in the fat pad mass"},
      {"measurement": "Mass of liver", "setting": "[6]; 17-month old C57BL/6J male mice on chow diet, once a week, 21 weeks, versus CD Old (vehicle) and CD Young (vehicle)", "value": "the lowest amongst all 3 groups"},
      {"measurement": "Mass of organs including liver, kidney and BAT", "setting": "[6]; [8]", "value": "cannot reduce the mass of most organs"},
      {"measurement": "Visceral and subcutaneous fat mass", "setting": "[6]; [8]", "value": "did not reduce body fat"},
      {"measurement": "Fat pad mass of perirenal and inguinal WAT and interscapular BAT", "setting": "[6]; [9]", "value": "marked reduction in the fat pad mass"},
      {"measurement": "Liver mass", "setting": "[6]; [9]", "value": "prominently reduced to the same extent for both groups"},
      {"measurement": "Liver weight", "setting": "[6]; DIO C57BL/6J male mice on HFD, 600 U once a week, 12 weeks", "value": "the weight was similar to the lean control"},
      {"measurement": "Fatty pancreas", "setting": "[6]; DIO C57BL/6J male mice on HFD, half dose alone", "value": "can also reverse the fatty pancreas"},
      {"measurement": "Mass of organs including liver, pancreas and BAT", "setting": "[6]; DIO C57BL/6J male mice on HFD, rhArg once a week alone or 0.33 mg RA daily alone", "value": "can already reduce the mass of most organs"},
      {"measurement": "Visceral and subcutaneous fat mass", "setting": "[6]; DIO C57BL/6J male mice on HFD, rhArg once a week and/or 0.33 mg RA daily", "value": "did not reduce body fat"},
      {"measurement": "Fat pad mass (WAT, BAT) and liver, kidney and heart mass", "setting": "[6]; DIO ICR female mice on HFD, once a week, 56 weeks", "value": "significantly less than that of HFD-fed mice treated with vehicle"}
    ]}
  ]
}
